Experimental data reported in US20250059284A1.

Tests used:
[1] = target: galectin-10 (Gal10), species and tag not stated for the assay (UniProt Q05315); experiment: competition ELISA; negative control, set as 0% competition; competitor biotinylated g7B07 hFab
[2] = target: galectin-10 (Gal10), species and tag not stated for the assay (UniProt Q05315); experiment: competition ELISA; negative control; competitor biotinylated g7B07 hFab (detected)

galectin-10 (Gal10), species and tag not stated for the assay, sequence (Q05315 2-142 limits assumed): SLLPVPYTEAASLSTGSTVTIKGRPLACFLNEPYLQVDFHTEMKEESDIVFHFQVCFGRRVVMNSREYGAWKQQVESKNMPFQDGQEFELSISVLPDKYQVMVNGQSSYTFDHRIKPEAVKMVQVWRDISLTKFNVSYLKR

- % Competition against g7B07-Biot [1]: 0%
- Mean OD value [2]: 2.51 OD
Substance: Motavizumab in human Fab backbone
